The record followed here is IntAct's records for PubMed 24794231.

B1: Cyclin-Y (Homo sapiens), Q8ND76 (parent)
chain: MGNTTSCCVSSSPKLRRNAHSRLESYRPDTDLSREDTGCNLQHISDRENIDDLNMEFNPSDHPRASTIFLSKSQTDVREKRKSLFINHHPPGQIARKYSSCSTIFLDDSTVSQPNLKYTIKCVALAIYYHIKNRDPDGRMLLDIFDENLHPLSKSEVPPDYDKHNPEQKQIYRFVRTLFSAAQLTAECAIVTLVYLERLLTYAEIDICPANWKRIVLGAILLASKVWDDQAVWNVDYCQILKDITVEDMNELERQFLELLQFNINVPSSVYAKYYFDLRSLAEANNLSFPLEPLSRERAHKLEAISRLCEDKYKDLRRSARKRSASADNLTLPRWSPAIIS

The variants in the first experiment derive from B1. The settings on record: with cul1_human CUL1, Q13616.
cul1_human CUL1, Q13616, sequence (Q13616 whole entry): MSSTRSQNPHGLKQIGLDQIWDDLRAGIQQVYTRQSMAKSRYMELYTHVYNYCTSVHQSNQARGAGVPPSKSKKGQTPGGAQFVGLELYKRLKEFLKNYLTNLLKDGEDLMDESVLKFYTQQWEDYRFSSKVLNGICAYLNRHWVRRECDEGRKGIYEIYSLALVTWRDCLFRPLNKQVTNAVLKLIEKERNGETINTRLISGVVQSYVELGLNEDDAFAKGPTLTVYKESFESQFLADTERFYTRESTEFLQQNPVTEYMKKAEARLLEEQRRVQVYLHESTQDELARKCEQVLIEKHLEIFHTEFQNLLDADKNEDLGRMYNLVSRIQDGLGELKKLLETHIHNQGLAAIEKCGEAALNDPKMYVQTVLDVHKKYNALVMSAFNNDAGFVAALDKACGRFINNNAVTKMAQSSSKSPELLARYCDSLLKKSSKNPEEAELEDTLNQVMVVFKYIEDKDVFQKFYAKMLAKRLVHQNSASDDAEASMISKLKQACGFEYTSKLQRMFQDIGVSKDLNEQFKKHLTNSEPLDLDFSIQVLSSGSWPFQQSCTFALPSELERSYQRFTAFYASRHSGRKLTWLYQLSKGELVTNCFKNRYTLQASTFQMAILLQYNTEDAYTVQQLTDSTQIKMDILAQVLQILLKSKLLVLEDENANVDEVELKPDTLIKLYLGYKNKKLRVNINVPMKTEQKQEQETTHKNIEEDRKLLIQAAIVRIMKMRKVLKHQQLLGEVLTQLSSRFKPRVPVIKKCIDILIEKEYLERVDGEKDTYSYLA
Consider MGNTTSCCVSSSPKLRRNAHSRLESYRPDTDLSREDTGCNLQHISDRENIDDLNMEFNPSDHPRASTIFLSKAQTDVREKRKSLFINHHPPGQIARKYSSCSTIFLDDSTVSQPNLKYTIKCVALAIYYHIKNRDPDGRMLLDIFDENLHPLSKSEVPPDYDKHNPEQKQIYRFVRTLFSAAQLTAECAIVTLVYLERLLTYAEIDICPANWKRIVLGAILLASKVWDDQAVWNVDYCQILKDITVEDMNELERQFLELLQFNINVPSSVYAKYYFDLRSLAEANNLSFPLEPLSRERAHKLEAISRLCEDKYKDLRRSARKRSASADNLTLPRWSPAIIS [S73A], for which the “effect of a mutation on the interaction” value is recorded as “decreasing interaction”.

In another experiment the parent is B1. The following applies: with cul1_human CUL1, Q13616. The source holds these as a separate data set.
MGNTTSCCVSSSPKLRRNAHSRLESYRPDTDLSREDTGCNLQHISDRENIDDLNMEFNPSDHPRASTIFLAKSQTDVREKRKSLFINHHPPGQIARKYSSCSTIFLDDSTVSQPNLKYTIKCVALAIYYHIKNRDPDGRMLLDIFDENLHPLSKSEVPPDYDKHNPEQKQIYRFVRTLFSAAQLTAECAIVTLVYLERLLTYAEIDICPANWKRIVLGAILLASKVWDDQAVWNVDYCQILKDITVEDMNELERQFLELLQFNINVPSSVYAKYYFDLRSLAEANNLSFPLEPLSRERAHKLEAISRLCEDKYKDLRRSARKRSASADNLTLPRWSPAIIS [S71A]: the “effect of a mutation on the interaction” value was “decreasing interaction”.

Variants of B1 are the subject of the next experiment. The following applies: with cul1_human CUL1, Q13616. This is another data set of the same source.
With MGNTTSCCVSSSPKLRRNAHSRLESYRPDTDLSREDTGCNLQHISDRENIDDLNMEFNPSDHPRASTIFLAKAQTDVREKRKSLFINHHPPGQIARKYSSCSTIFLDDSTVSQPNLKYTIKCVALAIYYHIKNRDPDGRMLLDIFDENLHPLSKSEVPPDYDKHNPEQKQIYRFVRTLFSAAQLTAECAIVTLVYLERLLTYAEIDICPANWKRIVLGAILLASKVWDDQAVWNVDYCQILKDITVEDMNELERQFLELLQFNINVPSSVYAKYYFDLRSLAEANNLSFPLEPLSRERAHKLEAISRLCEDKYKDLRRSARKRSASADNLTLPRWSPAIIS [S71A;S73A], the “effect of a mutation on the interaction” value is recorded as “disrupting interaction”.
